The target in assay [1] is recombinant GST-human GPC3 stem protein (human). The assay is described as follows: ELISA, coated antigen 1 µg/ml. In general terms: An ELISA detects its analyte on a solid surface through an enzyme-linked reagent.
The target of assay [2] is recombinant cynomolgus monkey GPC3 full-length protein (cynomolgus monkey). The experiment in a line: ELISA, coated antigen 1 µg/ml.
In assay [3] the target is recombinant human GPC3 protein (human) (UniProt P51654). The experiment in a line: ELISA, coated antigen 1 µg/ml.
The target in assay [4] is human GPC3 on cells (human) (UniProt P51654). The experiment in a line: flow cytometry, CHO-human GPC3 cells. In general terms: Flow cytometry measures light scatter and fluorescence of single cells or particles in a stream.
In assay [5] the target is recombinant human GPC3 protein (human) (UniProt P51654). The assay is described as follows: BLI (Octet), antibody on Protein A probe. A general note: BLI is a label-free optical method that tracks binding on a fibre tip over time.
Assay [6] has the same target. The assay is described as follows: BLI (Octet), antibody on Protein A probe. This is another data set of the same source.
Assay [7] has as its target recombinant cynomolgus monkey GPC3 full-length protein (cynomolgus monkey). The experiment in a line: SPR (Biacore T200), antibody on Protein A chip, GPC3 as analyte.
In assay [8] the target is recombinant human GPC3 protein (human) (UniProt P51654). Described as above.
Assay [9] has as its target human GPC3 on cells (human) (UniProt P51654). The assay is described as follows: flow cytometry on human GPC3-CHO stably-transfected cells, MFI.
Assay [10] deals with recombinant human GPC3 protein (human) (UniProt P51654). The experiment in a line: ELISA on coated recombinant human GPC3 protein, OD450 [panel Recombinant human GPC3 protein].
The target in assay [11] is recombinant cynomolgus monkey GPC3 full-length protein (cynomolgus monkey). The experiment in a line: ELISA on coated recombinant cynomolgus monkey GPC3 protein, OD450 [panel Recombinant cynomolgus monkey GPC3 protein].
The target of assay [12] is human CD3 on T cells (human) (UniProt P07766). The experiment in a line: flow cytometry, Jurkat cells.
Assay [13] has the same target. The experiment in a line: flow cytometry, human peripheral blood CD4+ T cells.
Assay [14] shares this target. The assay is described as follows: flow cytometry, human peripheral blood CD8+ T cells.

Chain of recombinant GST-human GPC3 stem protein (human) (chain, as listed by the source limits assumed, form in doubt): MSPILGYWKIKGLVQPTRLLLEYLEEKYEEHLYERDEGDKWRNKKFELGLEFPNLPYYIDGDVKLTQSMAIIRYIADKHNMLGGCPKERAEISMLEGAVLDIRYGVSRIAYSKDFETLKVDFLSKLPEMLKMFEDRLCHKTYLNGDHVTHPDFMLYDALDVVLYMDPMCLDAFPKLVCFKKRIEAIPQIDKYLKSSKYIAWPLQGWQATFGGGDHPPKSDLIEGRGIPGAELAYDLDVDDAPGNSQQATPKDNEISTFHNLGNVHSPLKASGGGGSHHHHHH

On to GC33 (antibody), for which the EC50 (usually the midpoint of the concentration-response curve) in [1] is 0.06 nM; in [2] it was 0.16 nM; in [3], 0.074 nM; in assay [4], 2.74 nM. The Kd (as a rule, the constant that tells how readily two partners part at equilibrium) was found to be 4.17 nM in [5], 1.35 nM in assay [6], 6.38 nM in assay [7] and 1.03 nM in assay [8]. Moreover, the koff – broadly, the first-order rate constant of dissociation – came to 0.000229 s⁻¹ in assay [5], 0.000111 s⁻¹ in [6], 0.000429 s⁻¹ in [7] and 0.000185 s⁻¹ in assay [8]. The kon (as a rule, the rate constant with which the complex forms) in [5] came to 54900 M⁻¹ s⁻¹; in assay [6], 82600 M⁻¹ s⁻¹; in [7], 67200 M⁻¹ s⁻¹; in [8] it was 181000 M⁻¹ s⁻¹. For the same substance, the results for the EC50 (read off the curve) in assay [9], in [10] and in assay [11] were 4 nM, 0.03 nM and 0.03 nM, respectively.
Turning to KLH×CD3 (bispecific antibody), the figures for the EC50 in [12], in assay [13] and in assay [14] were 27 nM, 77 nM and 84 nM, respectively.
OKT3-hIgG1 (antibody) registered an EC50 in assay [12] of 0.27 nM.

The values above are taken from patent publication US20240043568A1.
